# B1: gastrointestinal HAstV-VA1 capsid spike (HAstV-VA1^gastro spike), residues 408-684 (domain or fragment)
# chain: PIPPTGVPVGDFYVCGRMTTLHMGGQSGIQATTLVNGMIYRTDHPEPSTSPVSNWEFTVLENNTIVGAGMGCVWFQKSEALVWTLDGQKLSGWNTLDGVGTTQLTVAWRQHNRTIYGWANVVAWNSEEWHTNAEQPHQPILRLTYWLVKINVLSEPEDFDVVQKSPLAYLEDYTTAQSKSAIQKLNFQTFQKPEGGGTLRAQYSTTPRQGDFAVIWQIGRHNFDMSTGKGTPVESLSDYVMPQQKDAHIGMWYRALTSVGPRSDVLTLHFHLPTVEK
# notes: Capsid precursor protein (VP86, ORF2) of human astrovirus VA1, gastrointestinal strain, NCBI YP_003090288.1, spike structural domain residues 408-684; C-terminal thrombin site and 10-histidine tag; tag removed with thrombin before SEC and crystallisation; Homodimer; also called VA1 Spike^Gastro; HAstV-VA1 spike; source: E. coli T7 Express, purified (TALON, thrombin digestion, SEC on Superdex 200 …)
# Target: the molecule itself
# Assay: SEC; Superdex 200 increase 10/300; retention volume compared with Bio-Rad gel filtration standards; 20 mM Tris-HCl pH 8.0, 150 mM NaCl
protein,measurement,value
B1,stoichiometry N,2

# Reference: paper PMC10950212, “Structure and antigenicity of the divergent human astrovirus VA1 capsid spike” (PLOS Pathogens, 2024)
